From patent US20060168698 come the findings set out here.

This data set deals with T1, SOS1 (Salt Overly Sensitive 1, plasma membrane Na+/H+ antiporter), Q9LKW9.
T1 chain: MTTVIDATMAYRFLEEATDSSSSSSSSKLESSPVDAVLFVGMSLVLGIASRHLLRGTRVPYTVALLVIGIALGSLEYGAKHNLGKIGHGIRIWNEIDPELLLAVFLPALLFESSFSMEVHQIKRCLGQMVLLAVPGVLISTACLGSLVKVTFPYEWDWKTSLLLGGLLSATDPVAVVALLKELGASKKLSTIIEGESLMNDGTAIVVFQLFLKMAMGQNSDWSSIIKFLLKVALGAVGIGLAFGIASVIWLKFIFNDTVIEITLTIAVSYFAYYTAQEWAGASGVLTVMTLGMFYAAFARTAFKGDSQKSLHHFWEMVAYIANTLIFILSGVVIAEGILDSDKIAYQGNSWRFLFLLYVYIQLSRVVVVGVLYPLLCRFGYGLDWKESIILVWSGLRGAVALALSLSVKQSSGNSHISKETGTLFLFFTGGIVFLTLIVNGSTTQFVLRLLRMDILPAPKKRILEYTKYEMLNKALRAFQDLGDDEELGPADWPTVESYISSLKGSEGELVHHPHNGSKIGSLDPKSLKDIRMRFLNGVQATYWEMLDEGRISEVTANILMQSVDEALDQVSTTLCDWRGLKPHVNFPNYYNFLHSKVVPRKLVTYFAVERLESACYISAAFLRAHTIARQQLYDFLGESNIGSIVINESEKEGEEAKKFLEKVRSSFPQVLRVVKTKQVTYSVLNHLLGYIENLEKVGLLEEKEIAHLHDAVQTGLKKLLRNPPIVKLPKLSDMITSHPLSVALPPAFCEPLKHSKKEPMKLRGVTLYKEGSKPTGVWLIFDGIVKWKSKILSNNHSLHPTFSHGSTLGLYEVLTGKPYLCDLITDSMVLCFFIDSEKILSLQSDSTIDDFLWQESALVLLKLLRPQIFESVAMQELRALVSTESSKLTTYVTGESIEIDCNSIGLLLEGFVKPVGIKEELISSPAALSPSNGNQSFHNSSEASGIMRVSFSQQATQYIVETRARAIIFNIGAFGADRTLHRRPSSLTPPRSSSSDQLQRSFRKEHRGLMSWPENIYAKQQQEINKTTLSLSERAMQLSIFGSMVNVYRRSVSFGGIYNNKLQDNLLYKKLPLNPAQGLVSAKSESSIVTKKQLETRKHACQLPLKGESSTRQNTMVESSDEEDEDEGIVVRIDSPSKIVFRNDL

B1: T/DSOS2 (SOS2 protein kinase with the Thr168-to-Asp change in the activation loop) (protein)
chain: MTKKMRRVGKYEVGRTIGEGTFAKVKFARNTDTGDNVAIKIMAKSTILKNRMVDQIKREISIMKIVRHPNIVRLYEVLASPSKIYIVLEFVTGGELFDRIVHKGRLEESESRKYFQQLVDAVAHCHCKGVYHRDLKPENLLLDTNGNLKVSDFGLSALPQEGVELLRDTCGTPNYVAPEVLSGQGYDGSAADIWSCGVILFVILAGYLPFSETDLPGLYRKINAAEFSCPPWFSAEVKFLIHRILDPNPKTRIQIQGIKKDPWFRLNYVPIRAREEEEVNLDDIRAVFDGIEGSYVAENVERNDEGPLMMNAFEMITLSQGLNLSALFDRRQDFVKRQTRFVSRREPSEIIANIEAVANSMGFKSHTRNFKTRLEGLSSIKAGQLAVVIEIYEVAPSLFMVDVRKAAGETLEYHKFYKKLCSKLENIIWRATEGIPKSEILRTITF
On to B1, for which the “plasma membrane Na+/H+-exchange activity, maximum stimulation relative to activity without added protein (100 mM NaCl)” value is “A maximum stimulation of activity of 40% relative to activity without added protein”.
